The results in this text go back to PMC2686265, “ATP and MO25α Regulate the Conformational State of the STRADα Pseudokinase and Activation of the LKB1 Tumour Suppressor” (PLoS Biology, 2009).

Changes are numbered by the printed parent chain. In names and notes the source's numbering stands.

The target of experiment [1] is T1, STRADα (Homo sapiens, UniProt Q7RTN6).
T1 construct: wild-type and mutant forms of STRADα (residues 54–431) and MO25α (residues 1–341) were expressed individually as GST fusion proteins in E. coli; GST (cleaved yes); made in house; host or cells: E. coli
T1 sequence (Q7RTN6 54-431): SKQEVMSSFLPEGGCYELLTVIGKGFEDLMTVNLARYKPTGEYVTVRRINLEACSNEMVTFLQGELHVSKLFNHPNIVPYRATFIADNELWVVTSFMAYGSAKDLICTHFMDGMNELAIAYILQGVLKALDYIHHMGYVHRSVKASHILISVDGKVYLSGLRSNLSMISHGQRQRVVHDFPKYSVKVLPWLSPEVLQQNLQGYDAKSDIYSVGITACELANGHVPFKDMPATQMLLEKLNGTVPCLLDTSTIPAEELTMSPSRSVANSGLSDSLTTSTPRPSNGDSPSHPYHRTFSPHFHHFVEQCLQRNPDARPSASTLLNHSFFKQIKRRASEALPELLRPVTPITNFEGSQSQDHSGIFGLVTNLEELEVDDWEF
Kind of experiment: TNP-ATP saturation binding (fluorescence). Particulars: STRADα alone. As to the method:
(§1) Fluorescent measurements of TNP-ATP (Molecular Probes), were obtained at 25°C in assay buffer (with the addition of 0.5–1.0 mM MgCl2 where indicated) using 1-cm pathlength cuvettes in a VARIAN Cary Eclipse Fluorescence spectrophotometer (Varian). Fluorescence was recorded using a 410-nm/540-nm excitation/emission wavelengths from 500 to 600 nm. In all cases, signal from the TNP-ATP buffer control was subtracted as background. For all binding studies, STRADα and STRADα mutants were assayed at 2 µM. In cases where STRADα/MO25α complexes were assayed, wild-type or mutant MO25α (2 µM) were preincubated for at least 2 h at 4°C prior to a fluorescence binding experiment. For saturation binding experiments, concentrated stocks of TNP-ATP were added stepwise, covering a range of concentrations from 0.05 to 30 µM. For displacement experiments, the concentration of TNP-ATP was fixed at 5 µM, and ATP or ADP was titrated in, covering a range of concentrations from 0.05 to 500 µM.
(§2) All data were analysed using GraphPad-PRISM software (http://www.graphpad.com). […] In the displacement studies, equilibrium constant values for ATP and ADP were calculated by first determining the logEC50 value, using a standard dose-response equation: F x/F max = minimum+(maximum−minimum)/(1+10^([N]−logEC 50 ^)), where [N] equals the concentration of added nucleotide, and F x/F max represents the fractional occupancy. Equilibrium constants for the competing ATP and ADP (K d ^N), were fitted using the equation: logEC50 = log(10^logK d ^N × (1+[TNP−ATP]/K d ^TNP−ATP)).

For experiment [2], the target named is T2, STRADα/MO25α complex (Homo sapiens, UniProt Q7RTN6).
T2 construct: wild-type and mutant forms of STRADα (residues 54–431) and MO25α (residues 1–341) were expressed individually as GST fusion proteins in E. coli; GST (cleaved yes); made in house; host or cells: E. coli
T2 sequence (Q7RTN6 54-431): T1 sequence (Q7RTN6 54-431)
T2 sequence (Q9Y376 1-341 partner): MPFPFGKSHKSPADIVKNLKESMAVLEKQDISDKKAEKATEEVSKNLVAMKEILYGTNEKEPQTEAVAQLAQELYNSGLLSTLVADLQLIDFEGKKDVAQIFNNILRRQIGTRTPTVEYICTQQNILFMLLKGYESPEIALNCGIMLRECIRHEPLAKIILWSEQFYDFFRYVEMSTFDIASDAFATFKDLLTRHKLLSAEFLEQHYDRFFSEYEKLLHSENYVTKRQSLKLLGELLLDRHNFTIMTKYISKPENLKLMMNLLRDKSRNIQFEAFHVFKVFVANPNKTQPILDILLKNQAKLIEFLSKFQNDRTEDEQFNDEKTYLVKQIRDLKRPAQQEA
Kind of experiment: TNP-ATP saturation binding (fluorescence). Particulars: No Mg2+. As to the method:
as §1, §2

The target in experiment [3] is T3, His-STRADα (residues 59–431) (human, UniProt Q7RTN6 59-431, lysines chemically methylated in the 2.35 Å crystal form only).
T3 construct: STRADα (STe-20 Related Adaptor alpha), human, residues 59–431; Crystallised both unmethylated (4.8 Å) and lysine-methylated (2.35 Å, PDB 3GNI); unmethylated in SPR; also called N-terminally 6-His-tagged STRADα; His-tagged STRADα; source: E. coli BL21(DE3)pLysS, coexpressed with untagged MO25α, purified (Ni2+ IMAC, Superdex 75); for SPR separated from MO25α on Ni2+-agarose (500 mM NaCl washes, …)
T3 sequence (looked up): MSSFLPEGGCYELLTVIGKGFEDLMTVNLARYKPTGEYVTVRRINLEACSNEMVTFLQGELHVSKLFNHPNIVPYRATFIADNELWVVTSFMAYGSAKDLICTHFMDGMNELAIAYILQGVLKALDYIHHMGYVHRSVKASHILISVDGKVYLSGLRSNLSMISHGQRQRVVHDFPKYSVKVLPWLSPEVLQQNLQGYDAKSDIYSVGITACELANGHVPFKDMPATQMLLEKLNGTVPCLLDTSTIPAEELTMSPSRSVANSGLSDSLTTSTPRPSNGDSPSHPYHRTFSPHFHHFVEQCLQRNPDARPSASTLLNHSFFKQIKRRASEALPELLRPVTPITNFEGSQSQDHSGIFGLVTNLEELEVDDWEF
Kind of experiment: crystal structure; co-expressed His-STRADα(59–431)/MO25α(1–341) complex at 7.5 mg/ml with 10 mM ATP and 1 mM MgCl2, sitting drop; unmethylated crystals 4.8 Å, lysine-methylated crystals 2.35 Å, space group P212121. Particulars: both partners purified.

In experiment [4] the target is T4, untagged STRADα (residues 59–431) (human, UniProt Q7RTN6 59-431).
T4 construct: STRADα, human, residues 59–431; also called STRADα lacking the His tag
T4 sequence (looked up): T3 sequence (looked up)
Kind of experiment: SPR; as a2 but with 100 µM ATP and 1 mM MgCl2 (MgATP). Particulars: both partners purified. For orientation: In SPR one partner is held on a chip, and binding of the other changes the refractive index at the surface.

In experiment [5] the target is T5, MO25α (M260A) (residues 1–341) (human, UniProt Q9Y376 1-341, M260A).
T5 sequence: T2 sequence (Q9Y376 1-341 partner) with M260A
Kind of experiment: SPR.

In experiment [6] the target is T5, MO25α (M260A) (residues 1–341). Kind of experiment: SPR; ATP, Kd1.
The target of experiment [7] is T6, MO25α (R227A) (residues 1–341) (human, UniProt Q9Y376 1-341, R227A).
T6 sequence: T2 sequence (Q9Y376 1-341 partner) with R227A
Kind of experiment: SPR; ATP, Kd1.

Experiment [8] concerns the target T5, MO25α (M260A) (residues 1–341). Kind of experiment: SPR; ATP+Mg2+, Kd1.
Experiment [9] has as its target T6, MO25α (R227A) (residues 1–341). Kind of experiment: SPR; ATP+Mg2+, Kd1.
In experiment [10] the target is T7, MO25α (WT) (residues 1–341) (human, UniProt Q9Y376 1-341).
T7 chain: T2 sequence (Q9Y376 1-341 partner)
Kind of experiment: SPR; ATP+Mg2+, Kd1.

Experiment [11] addresses T5, MO25α (M260A) (residues 1–341). Kind of experiment: SPR; ATP, Kd2 (second site).
For experiment [12] the target is unchanged. Kind of experiment: SPR; ATP+Mg2+, Kd2 (second site).
Experiment [13] concerns the target T7, MO25α (WT) (residues 1–341). Kind of experiment: SPR; ATP+Mg2+, Kd2 (second site).

On to `Nc1ncnc2c1ncn2[C@@H]1O[C@H](COP(=O)(O)OP(=O)(O)OP(=O)(O)O)[C@H]2OC3(O[C@H]21)C([N+](=O)[O-])=CC(=[N+]([O-])[O-])C=C3[N+](=O)[O-]` (some centres unmarked) [TNP-ATP, 2′,3′-O-2,4,6-trinitrophenyl-ATP], for which the Kd (usually the concentration at which binding is half-saturated) in experiment [1] (0.5 mM Mg2+) worked out at 1300 ± 800 nM; in experiment [1] (No Mg2+), 1100 nM; in [2], 90 ± 30 nM.

B1: full-length MO25α (residues 1–341), untagged (natural protein, human, UniProt Q9Y376 1-341, looked up)
chain: T2 sequence (Q9Y376 1-341 partner)
modifications: lysines chemically methylated in the 2.35 Å crystal form only
notes: MO25α, human, full length, residues 1–341; source: E. coli BL21(DE3)pLysS, coexpressed with His-STRADα, co-purified (Ni2+ IMAC, Superdex 75)
For B1, the binding result in experiment [3] is “binds”.

B2: MO25α (R227A) (residues 1–341) (natural protein, human, UniProt Q9Y376 1-341, looked up)
chain: T2 sequence (Q9Y376 1-341 partner) with R227A
notes: MO25α, human, residues 1–341 (full length), R227A; source: E. coli, expressed individually as GST fusion, purified on glutathione-Sepharose, eluted with PreScission protease
Take B2: in experiment [4], the binding result is “binds”.

B3: untagged STRADα (residues 59–431) (domain or fragment)
chain: T3 sequence (looked up)
In the case of B3, the Kd was determined as 8100 nM in [5]; 1500 nM in experiment [6]; 600 nM in experiment [7]; 2300 nM in experiment [8]; 800 nM in [9]; 5100 nM in experiment [10]. For the same molecule, the Kd came to 30 nM in [11], 82 nM in experiment [12] and 51 nM in experiment [13].
